Experimental data published in publication PMC7693276.

Target: central subunit ND3 of Y. lipolytica complex I (Y. lipolytica) (UniProt Q9B6C7)
Chain of UniProt Q9B6C7 (Q9B6C7 whole entry, one chain of several): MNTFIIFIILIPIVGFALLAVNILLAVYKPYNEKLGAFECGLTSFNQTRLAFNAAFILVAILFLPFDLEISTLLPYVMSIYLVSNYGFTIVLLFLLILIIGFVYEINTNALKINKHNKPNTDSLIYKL

Substance | complex I activity (Q reductase activity), residual rate of the mutant [%]
accessory subunit LYRM6 (NDUFA6) mutant F89A of Y. lipolytica complex I (natural protein) | < 25
accessory subunit LYRM6 (NDUFA6) mutant L42A of Y. lipolytica complex I (natural protein) | < 25
accessory subunit LYRM6 (NDUFA6) mutant Y43A of Y. lipolytica complex I (natural protein) | < 25
